Reference: patent US20140087995A1 (published 2014)
Numbered stars: 1 amine (or outer) side, 2 acyl side, 3 side chain; on linkers, the order of the positions; unused ones are H or OH. Bridge positions count the residues as written; N and C are the ends. Side chains are listed from the residue outwards. Ends that are not written are not given here. * marks the point of attachment. C20 diacid = O=C(O)CCCCCCCCCCCCCCCCCCC(=O)*; γGlu = O=C(O)[C@H](CCC(=O)[*:2])N[*:1]

T1: human calcitonin receptor (human, UniProt P30988 25-474)
T1 construct: whole, on cells; Assay used cell membranes of the transfected BHK cells; also called hCTR; hCT
T1 sequence (looked up): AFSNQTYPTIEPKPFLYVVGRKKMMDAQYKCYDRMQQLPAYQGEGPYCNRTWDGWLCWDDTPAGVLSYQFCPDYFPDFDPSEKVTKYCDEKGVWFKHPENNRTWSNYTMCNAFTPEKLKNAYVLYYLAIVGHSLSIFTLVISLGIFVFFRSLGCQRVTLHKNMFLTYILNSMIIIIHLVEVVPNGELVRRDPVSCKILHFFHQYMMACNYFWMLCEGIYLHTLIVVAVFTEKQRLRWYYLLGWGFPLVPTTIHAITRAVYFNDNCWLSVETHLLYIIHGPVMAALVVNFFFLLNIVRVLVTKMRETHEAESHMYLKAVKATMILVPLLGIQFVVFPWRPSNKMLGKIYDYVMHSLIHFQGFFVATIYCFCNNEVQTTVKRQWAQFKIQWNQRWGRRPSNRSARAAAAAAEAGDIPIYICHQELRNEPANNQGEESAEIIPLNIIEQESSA

B1: N^ε1-[(4S)-4-carboxy-4-(19-carboxynonadecanoylamino)butanoyl]-[Arg14,Arg17,Pro21,Pro27,Pro31]-h-amylin (peptide)
peptide: K([γGlu-C20 diacid])CNTATCATQRLARFLRHSSPNFGAIPSSTPVGSNTY-NH2
modifications: disulfide 2-7; N-terminus assumed
SMILES: CC[C@H](C)[C@H](NC(=O)[C@H](C)NC(=O)CNC(=O)[C@H](Cc1ccccc1)NC(=O)[C@H](CC(N)=O)NC(=O)[C@@H]1CCCN1C(=O)[C@H](CO)NC(=O)[C@H](CO)NC(=O)[C@H](Cc1c[nH]cn1)NC(=O)[C@H](CCCNC(=N)N)NC(=O)[C@H](CC(C)C)NC(=O)[C@H](Cc1ccccc1)NC(=O)[C@H](CCCNC(=N)N)NC(=O)[C@H](C)NC(=O)[C@H](CC(C)C)NC(=O)[C@H](CCCNC(=N)N)NC(=O)[C@H](CCC(N)=O)NC(=O)[C@@H](NC(=O)[C@H](C)NC(=O)[C@@H]1CSSC[C@H](NC(=O)[C@@H](N)CCCCNC(=O)CC[C@H](NC(=O)CCCCCCCCCCCCCCCCCCC(=O)O)C(=O)O)C(=O)N[C@@H](CC(N)=O)C(=O)N[C@@H]([C@@H](C)O)C(=O)N[C@@H](C)C(=O)N[C@@H]([C@@H](C)O)C(=O)N1)[C@@H](C)O)C(=O)N1CCC[C@H]1C(=O)N[C@@H](CO)C(=O)N[C@@H](CO)C(=O)N[C@H](C(=O)N1CCC[C@H]1C(=O)N[C@H](C(=O)NCC(=O)N[C@@H](CO)C(=O)N[C@@H](CC(N)=O)C(=O)N[C@H](C(=O)N[C@@H](Cc1ccc(O)cc1)C(N)=O)[C@@H](C)O)C(C)C)[C@@H](C)O
notes: Synthetic analogue; also called compound 63
B2: N^ε1-[(4S)-4-carboxy-4-(19-carboxynonadecanoylamino)butanoyl]-[Arg17,Pro21,Pro27,His35]-h-amylin (peptide)
peptide: K([γGlu-C20 diacid])CNTATCATQRLANFLRHSSPNFGAIPSSTNVGSHTY-NH2
modifications: disulfide 2-7; N-terminus assumed
SMILES: CC[C@H](C)[C@H](NC(=O)[C@H](C)NC(=O)CNC(=O)[C@H](Cc1ccccc1)NC(=O)[C@H](CC(N)=O)NC(=O)[C@@H]1CCCN1C(=O)[C@H](CO)NC(=O)[C@H](CO)NC(=O)[C@H](Cc1c[nH]cn1)NC(=O)[C@H](CCCNC(=N)N)NC(=O)[C@H](CC(C)C)NC(=O)[C@H](Cc1ccccc1)NC(=O)[C@H](CC(N)=O)NC(=O)[C@H](C)NC(=O)[C@H](CC(C)C)NC(=O)[C@H](CCCNC(=N)N)NC(=O)[C@H](CCC(N)=O)NC(=O)[C@@H](NC(=O)[C@H](C)NC(=O)[C@@H]1CSSC[C@H](NC(=O)[C@@H](N)CCCCNC(=O)CC[C@H](NC(=O)CCCCCCCCCCCCCCCCCCC(=O)O)C(=O)O)C(=O)N[C@@H](CC(N)=O)C(=O)N[C@@H]([C@@H](C)O)C(=O)N[C@@H](C)C(=O)N[C@@H]([C@@H](C)O)C(=O)N1)[C@@H](C)O)C(=O)N1CCC[C@H]1C(=O)N[C@@H](CO)C(=O)N[C@@H](CO)C(=O)N[C@H](C(=O)N[C@@H](CC(N)=O)C(=O)N[C@H](C(=O)NCC(=O)N[C@@H](CO)C(=O)N[C@@H](Cc1c[nH]cn1)C(=O)N[C@H](C(=O)N[C@@H](Cc1ccc(O)cc1)C(N)=O)[C@@H](C)O)C(C)C)[C@@H](C)O
notes: Synthetic analogue; also called compound 60
B3: N^ε1-[(4S)-4-carboxy-4-(19-carboxynonadecanoylamino)butanoyl]-[Glu14,Arg17,Pro21,Pro27,Arg35]-h-amylin (peptide)
peptide: K([γGlu-C20 diacid])CNTATCATQRLAEFLRHSSPNFGAIPSSTNVGSRTY-NH2
modifications: disulfide 2-7; N-terminus assumed
SMILES: CC[C@H](C)[C@H](NC(=O)[C@H](C)NC(=O)CNC(=O)[C@H](Cc1ccccc1)NC(=O)[C@H](CC(N)=O)NC(=O)[C@@H]1CCCN1C(=O)[C@H](CO)NC(=O)[C@H](CO)NC(=O)[C@H](Cc1c[nH]cn1)NC(=O)[C@H](CCCNC(=N)N)NC(=O)[C@H](CC(C)C)NC(=O)[C@H](Cc1ccccc1)NC(=O)[C@H](CCC(=O)O)NC(=O)[C@H](C)NC(=O)[C@H](CC(C)C)NC(=O)[C@H](CCCNC(=N)N)NC(=O)[C@H](CCC(N)=O)NC(=O)[C@@H](NC(=O)[C@H](C)NC(=O)[C@@H]1CSSC[C@H](NC(=O)[C@@H](N)CCCCNC(=O)CC[C@H](NC(=O)CCCCCCCCCCCCCCCCCCC(=O)O)C(=O)O)C(=O)N[C@@H](CC(N)=O)C(=O)N[C@@H]([C@@H](C)O)C(=O)N[C@@H](C)C(=O)N[C@@H]([C@@H](C)O)C(=O)N1)[C@@H](C)O)C(=O)N1CCC[C@H]1C(=O)N[C@@H](CO)C(=O)N[C@@H](CO)C(=O)N[C@H](C(=O)N[C@@H](CC(N)=O)C(=O)N[C@H](C(=O)NCC(=O)N[C@@H](CO)C(=O)N[C@@H](CCCNC(=N)N)C(=O)N[C@H](C(=O)N[C@@H](Cc1ccc(O)cc1)C(N)=O)[C@@H](C)O)C(C)C)[C@@H](C)O
notes: Synthetic analogue; also called compound 51
B4: N^ε1-[(4S)-4-carboxy-4-(19-carboxynonadecanoylamino)butanoyl]-[His14,Arg17,Pro21,Pro27,Pro31]-h-amylin (peptide)
peptide: K([γGlu-C20 diacid])CNTATCATQRLAHFLRHSSPNFGAIPSSTPVGSNTY-NH2
modifications: disulfide 2-7; N-terminus assumed
SMILES: CC[C@H](C)[C@H](NC(=O)[C@H](C)NC(=O)CNC(=O)[C@H](Cc1ccccc1)NC(=O)[C@H](CC(N)=O)NC(=O)[C@@H]1CCCN1C(=O)[C@H](CO)NC(=O)[C@H](CO)NC(=O)[C@H](Cc1c[nH]cn1)NC(=O)[C@H](CCCNC(=N)N)NC(=O)[C@H](CC(C)C)NC(=O)[C@H](Cc1ccccc1)NC(=O)[C@H](Cc1c[nH]cn1)NC(=O)[C@H](C)NC(=O)[C@H](CC(C)C)NC(=O)[C@H](CCCNC(=N)N)NC(=O)[C@H](CCC(N)=O)NC(=O)[C@@H](NC(=O)[C@H](C)NC(=O)[C@@H]1CSSC[C@H](NC(=O)[C@@H](N)CCCCNC(=O)CC[C@H](NC(=O)CCCCCCCCCCCCCCCCCCC(=O)O)C(=O)O)C(=O)N[C@@H](CC(N)=O)C(=O)N[C@@H]([C@@H](C)O)C(=O)N[C@@H](C)C(=O)N[C@@H]([C@@H](C)O)C(=O)N1)[C@@H](C)O)C(=O)N1CCC[C@H]1C(=O)N[C@@H](CO)C(=O)N[C@@H](CO)C(=O)N[C@H](C(=O)N1CCC[C@H]1C(=O)N[C@H](C(=O)NCC(=O)N[C@@H](CO)C(=O)N[C@@H](CC(N)=O)C(=O)N[C@H](C(=O)N[C@@H](Cc1ccc(O)cc1)C(N)=O)[C@@H](C)O)C(C)C)[C@@H](C)O
notes: Synthetic analogue; also called compound 62
B5: N^ε1-[(4S)-4-carboxy-4-[[(4S)-4-carboxy-4-(19-carboxynonadecanoylamino)butanoyl]amino]butanoyl]-[Asp14,Arg17,Pro21,Pro27,Arg35]-h-amylin (peptide)
peptide: K([γGlu-γGlu-C20 diacid])CNTATCATQRLADFLRHSSPNFGAIPSSTNVGSRTY-NH2
modifications: disulfide 2-7; N-terminus assumed
SMILES: CC[C@H](C)[C@H](NC(=O)[C@H](C)NC(=O)CNC(=O)[C@H](Cc1ccccc1)NC(=O)[C@H](CC(N)=O)NC(=O)[C@@H]1CCCN1C(=O)[C@H](CO)NC(=O)[C@H](CO)NC(=O)[C@H](Cc1c[nH]cn1)NC(=O)[C@H](CCCNC(=N)N)NC(=O)[C@H](CC(C)C)NC(=O)[C@H](Cc1ccccc1)NC(=O)[C@H](CC(=O)O)NC(=O)[C@H](C)NC(=O)[C@H](CC(C)C)NC(=O)[C@H](CCCNC(=N)N)NC(=O)[C@H](CCC(N)=O)NC(=O)[C@@H](NC(=O)[C@H](C)NC(=O)[C@@H]1CSSC[C@H](NC(=O)[C@@H](N)CCCCNC(=O)CC[C@H](NC(=O)CC[C@H](NC(=O)CCCCCCCCCCCCCCCCCCC(=O)O)C(=O)O)C(=O)O)C(=O)N[C@@H](CC(N)=O)C(=O)N[C@@H]([C@@H](C)O)C(=O)N[C@@H](C)C(=O)N[C@@H]([C@@H](C)O)C(=O)N1)[C@@H](C)O)C(=O)N1CCC[C@H]1C(=O)N[C@@H](CO)C(=O)N[C@@H](CO)C(=O)N[C@H](C(=O)N[C@@H](CC(N)=O)C(=O)N[C@H](C(=O)NCC(=O)N[C@@H](CO)C(=O)N[C@@H](CCCNC(=N)N)C(=O)N[C@H](C(=O)N[C@@H](Cc1ccc(O)cc1)C(N)=O)[C@@H](C)O)C(C)C)[C@@H](C)O
notes: Synthetic analogue of human amylin; also called compound 52

molecular target: T1, human calcitonin receptor; experiment: SPA radioligand competition (125I-calcitonin), membranes of BHK cells with human calcitonin receptor
Outline: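 BHK hCTR membranes 35 ng/μL + SPA beads 0.05 mg/well; buffer 50 mM Hepes pH 7.4, 1 mM CaCl2, 5 mM MgCl₂, 0.1% OA, 0.02% Tween20. 120 min, 25° C., shaking. Scintillation count; IC50 by one-site binding competition.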

Binder | IC50 [nM]
B1 | 130
B2 | 31.4
B3 | 31.1
B4 | 6.17
B5 | 56.9
